The text below walks through data of patent US20240294651A1 (KYMAB, published 2024).

Usually IC50 stands for the concentration that gives 50% inhibition.

In test [1] the target is T1, human CXCR4 (cell-expressed) (human, UniProt P61073 1-352). As to the kind of experiment: cell-based or functional assay.
The target in test [2] is T1, human CXCR4 (cell-expressed). As to the kind of experiment: cell-based or functional assay. This is another data set of the same source.
The target of test [3] is T2, terbium-labelled SNAP-CXCR4 on HEK-293 cells (Cisbio C1TT1CXCR4) (human, UniProt P61072 1-352 (Pan troglodytes entry), terbium label on the SNAP tag).
T2 construct: Bought assay-ready cells; also called CXCR4 expressing cells; not shown: SNAP tag
As to the kind of experiment: TR-FRET (Tag-lite) competition with AlexaFluor 647-CXCL12 on terbium-labelled SNAP-CXCR4 HEK-293 cells. In general terms: In TR-FRET formats the signal depends on donor and acceptor labels being close together.

B1: CL-82495 (antibody, human IgG4 S228P, kappa, V domains shown)
VH: QVQLVESGGGVVQPGRSLRLSCEASGFTLSSYGMHWVRQAPGKGLEWVAVIWNDGSNKYSADSVKGRFTISRDNSKNTLYLQMNRLRAEDTAVYYCARGGGYYGSGSHYRGYYYYGMDVWGQGTTVTVSS
VL: DIQMTQSPSSLSASVGDRVTITCRASQGIRNDLGWYQQKPGKAPKRLIYAASSLQSGVPSRFSGSGSGTEFTLTISSLQPEDFATYYCLQHNSYPWTFGQGTKVEIKR
notes: Tested in human IgG4-PE format
For B1, in test [1], the “% Max Inhibition, cAMP HTRF assay, CXCR4 BacMam HEK-293 cells” value (from here on “% Max Inhibition, cAMP HTRF assay”) came to 96% and the “IC50, cAMP HTRF assay, CXCR4 BacMam HEK-293 cells, 5.5 nM CXCL12” value (shortened to “IC50, cAMP HTRF assay”) is 27 nM. In test [2], the “% Max Inhibition, beta-arrestin reporter assay, Tango CXCR4-bla U2OS cells” value (“% Max Inhibition … Tango CXCR4-bla U2OS cells” for short) is 98.9% and the “IC50, beta-arrestin reporter assay, Tango CXCR4-bla U2OS cells, 30 nM CXCL12” value (from here on “IC50, beta-arrestin reporter assay”) came to 2.08 nM. In test [3], the “% Max Inhibition” value stood at 100% and the IC50 was determined as 1.71 nM.

B2: CL-82523 (antibody, human IgG4 S228P, kappa, V domains shown)
VH: EVQLVESGGGLVQPGGSLRLSCAASGFTFSNYAMSWVRQAPRKGLEWVSVISGSGGRTNYAGSVKGRFSITRDNSKNTLYLQMNSLRAEDTAVYYCVKGQLERRYYYYYGMDVWGQGITVTVSS
VL: DIQMTQSPSSLSASVGDRVTITCRASQGIRNDLGWYQQKPGKAPKRLIYAASSLQSGVPSRFSGSGSGTEFTLTISSLQPEDFATYYCLQHNSYPLTFGGGTKVEIKR
notes: as for B1
Take B2: in test [1], the “% Max Inhibition, cAMP HTRF assay” value stood at 87% and the “IC50, cAMP HTRF assay” value came out at 24 nM. In addition, in test [2], the “% Max Inhibition … Tango CXCR4-bla U2OS cells” value is 101% and the “IC50, beta-arrestin reporter assay” value was 0.08 nM. Besides, in test [3], the “% Max Inhibition” value worked out at 101% and the IC50 turned out to be 0.55 nM.

B3: CL-148712 (antibody, human IgG4 S228P, kappa, V domains shown)
VH: EVQLVESGGDLVQPGGSLRLSCAASGFTFYSYAMNWVRQAPGKGLKWVSGISGSGDITYYADSVKGRFTISRDNSKNTLYLQMHSLRAEDTAVYYCAKGQLERRYYKYYGMDVWGQGTTVTVSS
VL: DIQMTQSPSSLSASVGDRVTITCRANQGIRNDLGWYQQKPGKAPKRLIYGASSLKSGVPSRFSGSGSGTEFTLTISSLQPEDFATYYCLQQNSYPLTFGGGTKVEIKR
Take B3: in test [1], the “% Max Inhibition, cAMP HTRF assay” value was 105% and the “IC50, cAMP HTRF assay” value was determined as 19 nM. For the same molecule, in test [2], the “% Max Inhibition … Tango CXCR4-bla U2OS cells” value was 98.4% and the “IC50, beta-arrestin reporter assay” value worked out at 0.19 nM.

B4: CL-82455 (antibody, human IgG4 S228P, kappa, V domains shown)
VH: QVQLVESGGGVVQPGRSLRLSCAASGFTFNNYGMHWVRQAPGKGLEWVAVIWNDGSNKYYGDSVKGRFTISRDNSKNTLYLQMNSLRAEDTAVYYCARGGGYYGSGKHYRGYYYNGMGVWGQGTPVTVSS
VL: EIVMTQSPATLSVSPGERATLSCRASQSVSSNLAWYQQKPGQAPRLLIYGASTRATGIPARFSGSGSGTEVTLTISSLQSEDFTIYYCQQYNNWPWTFGQGTKVDIKR
Regarding B4, in test [1], the “% Max Inhibition, cAMP HTRF assay” value was 103% and the “IC50, cAMP HTRF assay” value turned out to be 91 nM. For the same molecule, in test [2], the “% Max Inhibition … Tango CXCR4-bla U2OS cells” value is 86.8% and the “IC50, beta-arrestin reporter assay” value was determined as 9.12 nM.

B5: CL-82541 (antibody, human IgG4 S228P, kappa, V domains shown)
VH: QVQLQESGPGLVKPSQTLSLTCTVSGGSISSGRYYWSWIRQLPGKGLEWIGYISYSGNPFYSPSLKSRVTISVDTSENQFSLKLSSVTAADTAVYYCARDRRIPMLRGVKGYYYGMDVWGQGTTVTVSS
VL: not shown
notes: as for B1
Turning to B5, in test [1], the “% Max Inhibition, cAMP HTRF assay” value was 87% and the “IC50, cAMP HTRF assay” value was 74 nM. Also, in test [2], the “% Max Inhibition … Tango CXCR4-bla U2OS cells” value was 97.2% and the “IC50, beta-arrestin reporter assay” value turned out to be 0.38 nM. For the same molecule, in test [3], the “% Max Inhibition” value was found to be 97% and the half-maximal inhibitory concentration (IC50) worked out at 1.16 nM.

B6: CL-82577 (antibody, human IgG4 S228P, kappa, V domains shown)
VH: QVQLQESGPGLVKPSQTLSLTCTVSGGSISSGGYYWTWIRQLPGKGLEWIGYMSYSGNTFYSPSLKSRFTISGDTSENQFSLKVNSVTSADTAIYYCARDRRIPMLRGIKGYYYGMDVWGQGTTVTVSS
VL: not shown
notes: as for B1
B6: in test [1], the “% Max Inhibition, cAMP HTRF assay” value was 92% and the “IC50, cAMP HTRF assay” value was 29 nM. For the same molecule, in test [2], the “% Max Inhibition … Tango CXCR4-bla U2OS cells” value worked out at 102% and the “IC50, beta-arrestin reporter assay” value came out at 0.24 nM. For the same molecule, in test [3], the “% Max Inhibition” value worked out at 98% and the half-inhibitory concentration (IC50) worked out at 0.92 nM.

B7: CL-82580 (antibody, human IgG4 S228P, kappa, V domains shown)
VH: QVQLVQSGAEVKKPGASVKVSCRASGYTFTNYDINWVRQATGQGLEWMGWMNPNSGNTGYAQKFQGRVTMTRNTSISAAYMELSSLRSEDTAVYYCARGRGYYGSGSRYRGYYYYGMDVWGQGTTVTVSS
VL: not shown
notes: as for B1
For the molecule B7, in test [1], the “% Max Inhibition, cAMP HTRF assay” value was determined as 90% and the “IC50, cAMP HTRF assay” value turned out to be 46 nM. Also, in test [2], the “% Max Inhibition … Tango CXCR4-bla U2OS cells” value worked out at 100% and the “IC50, beta-arrestin reporter assay” value was found to be 1.15 nM. In test [3], the “% Max Inhibition” value was determined as 97% and the IC50 stood at 1.41 nM.

B8: CL-82551 (antibody, human IgG4 S228P, kappa, V domains shown)
VH: QVQLVQSGAEVKKPGASVKVSCKASGYTFTSYDINWVRQATGQGLEWMGWMNPNSGNTGYAQKFQGRVTMTRNTSISTAYMELSSLRSEDTAVYYCARGRGYYGSGSHYRGYYYYGLDVWGQGTTVTVSS
VL: DIQMTQSPSTLSASVGDRVTITCRASQSISSWLAWYQQKPGKAPKVLIYKASSLKSGVPSRFSGSGSGTEFTLTVSSLQPDDFATYYCQQYNSYSWTFGQGTKVEIKR
notes: as for B1
B8: in test [1], the “% Max Inhibition, cAMP HTRF assay” value came to 92% and the “IC50, cAMP HTRF assay” value came to 39 nM. For the same molecule, in test [2], the “% Max Inhibition … Tango CXCR4-bla U2OS cells” value came out at 98.2% and the “IC50, beta-arrestin reporter assay” value was 1.56 nM. Besides, in test [3], the “% Max Inhibition” value was determined as 98% and the IC50 amounted to 1.21 nM.

B9: CL-82583 (antibody, human IgG4 S228P, kappa)
heavy: not shown
light: DIQMTQSPSSLSASVGDRVTITCRASQGVRDDLGWYQQKPGKAPKRLIYAASSLQSGVPSRFSGSGSGTEFTLTISSLQPEDFATYYCLQHNSYPFTFGPGTKVDIKRTVAAPSVFIFPPSDEQLKSGTASVVCLLNNFYPREAKVQWKVDNALQSGNSQESVTEQDSKDSTYSLSSTLTLSKADYEKHKVYACEVTHQGLSSPVTKSFNRGEC
notes: as for B1
B9: in test [1], the “% Max Inhibition, cAMP HTRF assay” value is 91% and the “IC50, cAMP HTRF assay” value came out at 28 nM. In addition, in test [2], the “% Max Inhibition … Tango CXCR4-bla U2OS cells” value was found to be 94% and the “IC50, beta-arrestin reporter assay” value turned out to be 0.17 nM. Further, in test [3], the “% Max Inhibition” value is 98% and the IC50 worked out at 0.72 nM.

B10: CL-82556 (antibody, human IgG4 S228P, kappa, V domains shown)
VH: QVQLVESGGGVVQPGRSLRLSCAASGFTFYSYGMHWVRQAPGKGLEWVAVIWYGGTNKYYADSVKGRFTISRDNSKNTLYLQMNSLTAEDTAVYYCARGQLERRRGGLNIWGQGTMVTVSS
VL: DIQMTQSPSSLSASVGDRVTITCRASQGVRDDLGWYQQKPGKAPKRLIYAASNLQSGVPSRFSGSGSGTEFTLTIGSLQPEDFATYYCLQHNSYPFTFGPGTKVDIKR
notes: as for B1
With B10, in test [1], the “% Max Inhibition, cAMP HTRF assay” value is 94% and the “IC50, cAMP HTRF assay” value came out at 17 nM. Moreover, in test [2], the “% Max Inhibition … Tango CXCR4-bla U2OS cells” value was 101% and the “IC50, beta-arrestin reporter assay” value is 0.14 nM. In addition, in test [3], the “% Max Inhibition” value came to 99% and the IC50 is 0.7 nM.
